± gives the uncertainty stated by the source.
B1: Chromodomain-helicase-DNA-binding protein 4, residues 365 to 417; numbered along this chain, Q14839 (parent)
chain: YETDHQDYCEVCQQGGEIILCDTCPRAYHMVCLDPDMEKAPEGKWSCPHCEKE

Variants of: B1
Assay: abundance fitness (aPCA) (normalised: wild type 0, dead -1); higher = more abundant; growth selection in yeast, the domain comes from the species named
Conditions: Homo sapiens

Row | Variant | abundance fitness
1 | W45L | -0.218 ± 0.097
2 | W45M | 0.179 ± 0.15
3 | W45N | -0.051 ± 0.18
4 | W45P | -0.161 ± 0.22
5 | W45Q | 0.109 ± 0.14
6 | W45R | -0.162 ± 0.09
7 | W45S | 0.098 ± 0.1
8 | W45T | 0.085 ± 0.16
9 | W45V | 0.115 ± 0.11
10 | W45Y | -0.207 ± 0.18
11 | S46A | -0.18 ± 0.11
12 | S46C | 0.031 ± 0.16
13 | S46D | -0.168 ± 0.14
14 | S46E | -0.039 ± 0.13
15 | S46F | 0.125 ± 0.15
16 | S46G | -0.23 ± 0.086
17 | S46H | 0.068 ± 0.3
18 | S46I | -0.489 ± 0.23
19 | S46K | -0.65 ± 0.18
20 | S46L | -0.168 ± 0.1
21 | S46M | -0.197 ± 0.15
22 | S46N | 0.039 ± 0.17
23 | S46P | -0.258 ± 0.14
24 | S46Q | 0.054 ± 0.14
25 | S46R | -0.137 ± 0.092
26 | S46T | -0.07 ± 0.15

Row | Variant | abundance fitness
27 | S46W | 0.014 ± 0.12
28 | S46Y | -0.003 ± 0.16
29 | C47A | -0.756 ± 0.12
30 | C47D | -0.468 ± 0.17
31 | C47E | -0.331 ± 0.14
32 | C47F | -0.565 ± 0.24
33 | C47G | -0.867 ± 0.11
34 | C47H | -0.477 ± 0.33
35 | C47K | -0.81 ± 0.2
36 | C47L | -0.75 ± 0.14
37 | C47M | -0.882 ± 0.17
38 | C47N | -0.5 ± 0.27
39 | C47P | -0.657 ± 0.17
40 | C47Q | -0.833 ± 0.21
41 | C47R | -0.848 ± 0.11
42 | C47S | -0.99 ± 0.14
43 | C47T | -0.43 ± 0.15
44 | C47V | -1.11 ± 0.16
45 | C47W | -1.09 ± 0.16
46 | C47Y | -0.811 ± 0.22
47 | P48A | -0.002 ± 0.11
48 | P48C | -0.001 ± 0.19
49 | P48D | -0.16 ± 0.19
50 | P48E | -0.151 ± 0.12
51 | P48F | -0.165 ± 0.22
52 | P48G | -0.068 ± 0.098

Row | Variant | abundance fitness
53 | P48H | -0.057 ± 0.19
54 | P48I | -0.308 ± 0.27
55 | P48K | -0.29 ± 0.18
56 | P48L | -0.126 ± 0.1
57 | P48M | 0.07 ± 0.12
58 | P48N | -0.678 ± 0.3
59 | P48Q | -0.133 ± 0.15
60 | P48R | 0.063 ± 0.1
61 | P48S | 0.058 ± 0.1
62 | P48T | -0.132 ± 0.12
63 | P48V | -0.04 ± 0.11
64 | P48W | -0.622 ± 0.14
65 | P48Y | -0.101 ± 0.16
66 | H49A | -0.281 ± 0.11
67 | H49C | 0.348 ± 0.19
68 | H49D | -0.241 ± 0.15
69 | H49E | -0.247 ± 0.12
70 | H49F | -0.068 ± 0.19
71 | H49G | -0.086 ± 0.1
72 | H49I | -0.109 ± 0.17
73 | H49K | -0.2 ± 0.18
74 | H49L | -0.213 ± 0.13
75 | H49M | -0.354 ± 0.16
76 | H49N | -0.381 ± 0.23
